Results published in article doi:10.1101/2023.07.29.551094.

Target: TslA lipase domain, purified (S. aureus)
Assay: ITC

B1: TilA (SAOUHSC_00405) lacking its signal sequence, His tag removed (natural protein)
chain: CGNMKDEQKKEEQTNKTDSKEEQIKKSFAKTLDMYPIKNLEDLYDKEGYRDGEFKKGDKGTWTILTGFSKSNKPGVLDDEGMVLYLNRNTKKATGYYFVNKVYDDISKNHNEKKYRVELKNNKIVLLDNVEDKKLKQKIENFKFFSQYADFKDLKNYQDGNITTNENVPSYEAQYKMNNSDKNVKKLREIYPITTNNSPNLKLYIDGDIKGSSVGYKKIEYKFSKDKGQETTLRDYLNFGPSEGENVE
  Kd: 14.2 nM
  dH: -20.5 kcal/mol
  stoichiometry N: 0.88
